Reference: patent US20190389958A1, “ANTI-CXCR4 ANTIBODIES” (MSM Protein Technologies, Inc., priority 2017, published 2019)

Target: human CXCR4 (human) (UniProt P61073)
Assay: flow cytometry, IgG 10 µg/mL, CXCR4-expressing Ramos (RA1) cells

Sequence of human CXCR4 (human) (P61073 whole entry): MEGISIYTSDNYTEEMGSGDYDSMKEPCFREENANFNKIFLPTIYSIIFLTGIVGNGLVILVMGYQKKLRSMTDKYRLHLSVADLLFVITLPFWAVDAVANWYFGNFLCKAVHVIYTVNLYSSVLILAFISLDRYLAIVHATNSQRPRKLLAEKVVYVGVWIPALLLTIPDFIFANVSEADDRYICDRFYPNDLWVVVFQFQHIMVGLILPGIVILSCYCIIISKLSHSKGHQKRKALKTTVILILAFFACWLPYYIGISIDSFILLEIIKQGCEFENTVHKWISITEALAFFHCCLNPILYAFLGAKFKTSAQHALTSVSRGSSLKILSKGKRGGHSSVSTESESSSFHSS

Question: “human isotypic IgG1 kappa control (Coger Sarl, Paris, France) (antibody)” was tested. Which MFI did it give?
Answer: Its MFI is 42.
